Reference: paper PMC314469, “Protein Interaction Networks by Proteome Peptide Scanning” (PLoS Biology, 2004)

T1: amphyphisin SH3 (AMPH_HUMAN), P49418
T1 chain: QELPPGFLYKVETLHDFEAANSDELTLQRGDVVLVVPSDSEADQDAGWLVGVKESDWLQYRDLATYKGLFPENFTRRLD


Tests used:
[1] = biological target: T1, amphyphisin SH3 (AMPH_HUMAN), P49418; experiment: SPOT array
[2] = biological target: endophilin SH3 (SH3G2_HUMAN), Q99962; experiment: SPOT array

Row | Binder | normalised SPOT signal, Boehringer light units (BLU); mean over the file's lines of this peptide [1] | normalised SPOT signal, Boehringer light units (BLU); mean over the file's lines of this peptide [2]
1 | SQNEPKRPMSGEYG [Q9Y6X4 283-296] | 17 | 21.5
2 | SPPVPPRPPSSGPP [Q9UKN7 661-675] | 1270 | 1880
3 | SQGPPPRPGKPEGP [Q9UCT9 1-14] | 106 | 3230
4 | SQAFIYRPIRQRVY [Q9NU43 22-35] | 621 | 102
5 | SQGPLQRPSRLVFT [Q9UK00 141-154] | 1370 | 69.8
6 | SQQNFHRPVKVRKK [Q9UI45 537-550] | 52.5 | 99.7
7 | SSGSPDRPGRRGRR [Q9BXQ6 174-187] | 3220 | 150
8 | SPGVLRRPRRRPAA [Q9Y469 13-26] | 2430 | 190
9 | SQPGPAKPPAQPSG [Q9Y6V0 287-301] | 78.5 | 130
10 | SQQPPSRPPHLPVE [Q9UPQ2 54-68] | 45.1 | 775
11 | SPIKPKRPFVESNV [Q9ULS2 141-154] | 120 | 2110
12 | SQRRPRRPPTVFRL [Q96Q00 325-339] | 1550 | 10900
13 | SQEILRRPIVASEL [Q9UHW3 40-53] | 21.1 | 53.9
14 | SPVHLRRPQSPGAS [Q9Y556 324-337] | 31.7 | 56.3
15 | SPKSPGRPWKSVSE [P01042 611-624] | 228 | 117
16 | SPPSPDRPPHSQTS [Q03164 2117-2131] | 56.4 | 69.3
17 | SPVLPARPPPPPLS [O00508 1114-1128] | 399 | 4080

More lines, now with the values ahead:

Row | normalised SPOT signal, Boehringer light units (BLU); mean over the file's lines of this peptide [1] | normalised SPOT signal, Boehringer light units (BLU); mean over the file's lines of this peptide [2] | Binder
18 | 44.7 | 2540 | SQALPPRPPPPAPV [Q13330 692-706]
19 | 66.5 | 112 | SPTVPIKPPSIPNG [Q13557 471-485]
20 | 120 | 103 | SQGPPPRPGKPEGQ [Q04118 68-81]
21 | 1290 | 4830 | SPRLPRRPTVESHH [O94883 131-144]
22 | 52.9 | 33 | SPQEPKRPSQLPSP [O14686 4038-4051]
23 | 50.5 | 50.4 | SSSGPKRPQDKVAV [P21399 369-382]
24 | 1010 | 1210 | SPRALWRPPRRRTQ [O94807 430-443]
25 | 713 | 1520 | SPVLPARPPPPPLP [O75412 1038-1052]
26 | 587 | 437 | SPQAPRRPLPQVAT [Q13421 406-419]
27 | 103 | 132 | SQGPPPRPGKPEGS [Q04118 215-228]
28 | 14100 | 15300 | SQIPPQRPQRDQRV [Q13283 290-303]
29 | 51 | 77.2 | SPPELKRPRLDENK [Q13112 538-551]
30 | 72.6 | 1800 | SSGRPGRPPGPAAA [Q99491 157-171]
31 | 1780 | 22000 | SPSVPKRPKLPAPT [P18887 266-279]
